Here are results for two molecules from patent US20080131465A1, “Group a Streptococcus Crge Protein” (priority 2004, published 2008).

Experiment [1] concerns WT and Δspy1542 mutant strains. The experiment is described as follows: FACS analysis of LL-37 localised on the bacterial surface. The experiment is classed as cell-based, Streptococcus pyogenes. Conditions: 0.8 μM LL-37; WT versus Δspy1542 mutant; 5 or 10 min at 37° C. The protocol: An experiment was carried out to see if LL-37 bound to the surface of the bacteria. 0.8 μM LL-37 was added to the bacteria in a method similar to that for the bacterial killing assay. The amount of LL-37 localised on the bacterial surface was then compared for WT and Δspy1542 mutant strains by FACS analysis. […] This “protective” effect also increases with time. The WT strains therefore appear to be shielded against LL-37.

A further experiment concerns Streptococcus pneumoniae. In words: antimicrobial assay on Streptococcus pneumoniae. Type of experiment: cell-based. On the procedure:
(§1) The mutant was obtained using allelic exchange gene replacement mutagenesis. Positive clones were confirmed by PCR and used for further experiments. Quantitative real time PCR confirmed the absence of crgR mRNA in the mutant. ΔcrgR mutant cathelicidin resistance was tested in a bacterial killing assay. Bacteria were grown in THB to OD600 0.2 and diluted in […] Tris-HCl, pH7.5, containing 5 mM glucose. 1 ml of bacteria (˜10^6 cfu) were incubated together with different concentrations of cathelicidins for 1 hour at 37° C. with no agitation. The bactericidal activity was assessed by plating serial dilutions of the incubation mixtures on THY-blood agar.
In order to see if a similar mechanism of action was found in other bacteria encoding heterologous proteins, the antimicrobial assay was carried out as described above, except using Streptococcus pneumoniae. […] The experiment was repeated by adding 70 μg of native Spy1542 in addition to 0.4 μM, 0.8 μM or 1.6 μM of LL-37. In this second experiment, 100% survival at 0.4 μM was noted. Therefore Spy1542 appears to be able to inhibit cathelicidin action also in heterologous systems

For experiment [2], the system named is ΔcrgR mutant of GAS strain SF370. The experiment is classed as cell-based, Streptococcus pyogenes. Conditions: 1 hour at 37° C., ~10^6 cfu. On the procedure:
as §1

The subject of a further experiment is GAS strain SF370 WT. The experiment is classed as cell-based, Streptococcus pyogenes. The conditions noted are these: 1 hour at 37° C., ~10^6 cfu. On the procedure:
as §1

Experiment [3] relates to Wild-type, ΔcrgR and ΔcrgR/Δspy1542-43 strains challenged with cathelicidin. In words: bacterial killing assay with purified Spy1542 added to the medium. Type of experiment: cell-based, Streptococcus pyogenes. Conditions: different concentrations of purified Spy1542. On the procedure: The involvement of Spy1542 in the resistance mechanism to antimicrobial peptides was investigated further by cloning and expressing Spy1542 as a native protein. The expressed protein was purified by using a Q sepharose column followed by Cu chelating and finally, gel filtration (FIG. 7). The purified protein was successively used to study its effect when added to the medium in bacterial-killing assays.
Wild-type; ΔcrgR and ΔcrgR/Δspy1542-43 strains were challenged with 0.4 μM LL-37 or CRAMP, and added with different concentrations of the purified protein.
In addition, Spy1542 protein was also able to enhance in a dose dependent manner the survival rate of the ΔcrgR mutant (FIG. 8a).

Experiment [4] has as its system bacteria challenged with LL-37. In words: pre-treatment of bacteria with Spy1542, washing, then LL-37 challenge. Conditions: Spy1542 added, bacteria pelleted, washed, resuspended; then 0.4 μM LL-37. Type of experiment: cell-based, Streptococcus pyogenes. The protocol: A further experiment was therefore carried out to confirm that the effect of Spy1542 was indirect. Spy1542 was added to the bacteria. The bacteria were then pelleted, washed and resuspended. 0.4 μM LL-37 was then added to the suspension.

Another experiment concerns the target T1, LL-37 (Homo sapiens, UniProt P49913).
T1 construct: release the mature C-terminal antimicrobial peptide
T1 sequence (P49913 134-170 limits assumed): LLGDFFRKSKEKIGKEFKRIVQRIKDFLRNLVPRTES
In words: mass spectrometry of LL-37 in supernatant after Spy1542 treatment. Conditions: WT strain, 0.4 μM LL-37, after 30 minutes. The protocol:
Spy1542 was therefore used to treat the WT strain challenged with 0.4 μM LL-37 in a process similar to the bacterial killing assay described above. After 30 minutes, the bacteria were pelleted and the supernatant was analysed. It was discovered by mass spectrometry that the LL-37 in the supernatant was unmodified by the action of Spy1542 (FIG. 13).

Take `CC[C@H](C)[C@H](NC(=O)[C@H](CCCCN)NC(=O)[C@H](CCC(=O)O)NC(=O)[C@H](CCCCN)NC(=O)[C@H](CO)NC(=O)[C@H](CCCCN)NC(=O)[C@H](CCCNC(=N)N)NC(=O)[C@H](Cc1ccccc1)NC(=O)[C@H](Cc1ccccc1)NC(=O)[C@H](CC(=O)O)NC(=O)CNC(=O)[C@H](CC(C)C)NC(=O)[C@@H](N)CC(C)C)C(=O)NCC(=O)N[C@@H](CCCCN)C(=O)N[C@@H](CCC(=O)O)C(=O)N[C@@H](Cc1ccccc1)C(=O)N[C@@H](CCCCN)C(=O)N[C@@H](CCCNC(=N)N)C(=O)N[C@H](C(=O)N[C@H](C(=O)N[C@@H](CCC(N)=O)C(=O)N[C@@H](CCCNC(=N)N)C(=O)N[C@H](C(=O)N[C@@H](CCCCN)C(=O)N[C@@H](CC(=O)O)C(=O)N[C@@H](Cc1ccccc1)C(=O)N[C@@H](CC(C)C)C(=O)N[C@@H](CCCNC(=N)N)C(=O)N[C@@H](CC(N)=O)C(=O)N[C@@H](CC(C)C)C(=O)N[C@H](C(=O)N1CCC[C@H]1C(=O)N[C@@H](CCCNC(=N)N)C(=O)N[C@H](C(=O)N[C@@H](CCC(=O)O)C(=O)N[C@@H](CO)C(=O)O)[C@@H](C)O)C(C)C)[C@@H](C)CC)C(C)C)[C@@H](C)CC` [LL-37]: in experiment [1], the “amount of LL-37 localised on the bacterial surface” value is listed as “WT strain had less LL-31 on the bacterial surface”. In addition, in the experiment with Streptococcus pneumoniae (increasing concentrations of LL-37), the killing of bacteria entry was “shown to kill the bacteria”. For the same molecule, the figures for the “concentration necessary to kill 50% of bacterial cells (LD50)” value (in experiment [2]; in the experiment with GAS strain SF370 WT) were 0.28 µM and 0.103 µM, respectively.

B1: Spy1542: Streptococcus pyogenes protein encoded by crgE (spy1542), cloned, expressed as native protein and purified; confers resistance to cathelicidins (protein)
chain: MESYITPKHQEACVAAIKQIVSYPSVCHEGENGTPFGQAIQDILEATLDLCQGLGFHTYIDPEGYYGYAELGDQKEVLAILCHLDVVPEGDRQLWKTDPFDCVEADGCLFGRGTQDDKGPTMMALFATKALIDAGVTFNKRIRFIFGTDEETLWRCMNRYNDVEEQATFGFAPDSSFPLTYAEKGLLQAKLVGKGSDKLSLEIGQAYNVVPARASYQGDKLEALQKELDKLGFEYVVKEGELTVYGLAQHAKDAPDGINAMIRLAKALVVLEPNKTLDFLANVIDEDGRALNIFGRIEDEPSGKLSFNAAGLTLTKDKAEIRLDIRIPVLADKEKLVQQLSQKAQEYGLTYEEFDYLAPLYVPLDSELVTTLLSVYRKKTGDQSPAQSSGGATFARTMKNCVAFGALFPDAVQTEHQENEHIVLADAYRAMDIYAEAIYRLTR
modifications: Streptococcus pyogenes
notes: Streptococcus pyogenes protein encoded by crgE (spy1542), cloned, expressed as native protein and purified; confers resistance to cathelicidins
Regarding B1, the “inhibition of CRAMP bactericidal activity” value in experiment [3] (0.4 μM CRAMP) is on record as “inhibited cathelicidin bactericidal activity in a dose-dependent fashion”. For the same molecule, the “inhibition of LL-37 action (number of colonies, survival rate)” value in experiment [3] (0.4 μM LL-37) is “inhibits LL-37 action in a dose dependent manner”. For the same molecule, the “protective effect against LL-37 after pre-treatment and washing” value in experiment [4] was “protective effect of Spy1542 was maintained and that it was dose dependent”. For the same molecule, the “modification of LL-37 in the supernatant by Spy1542” value with LL-37 is “unmodified”. For the same molecule, the survival in the experiment on Streptococcus pneumoniae (70 μg native Spy1542 added with 0.4 μM LL-37) is reported as 100%.
